We go through one substance from patent publication US20080214462.

In this series the target is factor X (FX) (UniProt P00742).
Chain of UniProt P00742 (P00742 whole entry, looked up): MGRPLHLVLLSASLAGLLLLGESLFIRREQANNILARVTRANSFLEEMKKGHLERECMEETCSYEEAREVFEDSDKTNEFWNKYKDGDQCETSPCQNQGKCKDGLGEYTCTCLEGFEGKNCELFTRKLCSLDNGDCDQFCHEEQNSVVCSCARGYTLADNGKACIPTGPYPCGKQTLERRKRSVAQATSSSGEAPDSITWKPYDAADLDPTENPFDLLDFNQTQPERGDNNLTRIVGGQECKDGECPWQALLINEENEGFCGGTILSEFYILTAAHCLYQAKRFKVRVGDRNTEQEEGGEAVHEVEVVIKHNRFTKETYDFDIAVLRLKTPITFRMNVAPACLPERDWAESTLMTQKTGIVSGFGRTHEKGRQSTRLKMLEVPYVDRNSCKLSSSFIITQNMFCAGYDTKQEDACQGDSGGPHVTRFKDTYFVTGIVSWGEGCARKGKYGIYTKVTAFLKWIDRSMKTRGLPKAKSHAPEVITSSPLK

With activated plasma derived FIX (pdFIXa), the aPTT in FIX-depleted plasma: pdFIXa equivalent activity given for 0.5 µg/mL of FIXa protein was 1.1 µg/mL.
